{"source": "patent US20090311283A1", "key": {"HLA-A*0301 (human) [1]": {"target": "HLA-A*0301 (human)", "test": "competition with 125I-labelled probe peptide for purified HLA, gel filtration; value relative to standard peptide"}, "HLA-A*0301 (human) [2]": {"target": "HLA-A*0301 (human)", "test": "competition with radiolabeled probe peptide for purified HLA, gel filtration"}, "HLA-B*5401 (Human) [3]": {"target": "HLA-B*5401 (Human)", "test": "competition with 125I-labeled probe peptide for purified HLA, gel filtration"}, "HLA-A*0301 (human) [4]": {"target": "HLA-A*0301 (human)", "test": "competition with 125I-labelled probe peptide for purified HLA, gel filtration; relative binding to standard peptide"}, "HLA-A*0301 (human) [5]": {"target": "HLA-A*0301 (human)", "test": "competitive inhibition of 125I-labelled probe peptide binding to purified HLA; relative to standard peptide"}, "HLA-A*1101 (human)": {"target": "HLA-A*1101 (human)", "test": "competitive inhibition of 125I-labelled probe peptide binding to purified HLA; relative to standard peptide"}, "HLA-A*3101 (human) [6]": {"target": "HLA-A*3101 (human)", "test": "competitive inhibition of 125I-labelled probe peptide binding to purified HLA; relative to standard peptide"}, "HLA-A*3301 (human)": {"target": "HLA-A*3301 (human)", "test": "competitive inhibition of 125I-labelled probe peptide binding to purified HLA; relative to standard peptide"}, "HLA-A*0301 (human) [7]": {"target": "HLA-A*0301 (human)", "test": "competition with 125I-labelled probe peptide for purified HLA-A*0301, gel filtration; relative binding against the standard peptide", "conditions": "scale: ratio"}, "HLA-A*0301 (human) [8]": {"target": "HLA-A*0301 (human)"}, "HLA-A*3101 (Human) [9]": {"target": "HLA-A*3101 (Human)", "conditions": "remark: other sources report otherwise"}, "HLA-A*03 (Human)": {"target": "HLA-A*03 (Human)", "conditions": "remark: other sources report otherwise"}, "HLA-B*0702 (Human)": {"target": "HLA-B*0702 (Human)", "test": "competition with 125I-labelled probe peptide for purified HLA, gel filtration"}, "HLA-B*5101 (Human)": {"target": "HLA-B*5101 (Human)", "test": "competition with 125I-labelled probe peptide for purified HLA, gel filtration"}, "HLA-B*5301 (Human)": {"target": "HLA-B*5301 (Human)", "test": "competition with 125I-labelled probe peptide for purified HLA, gel filtration"}, "HLA-B*5401 (Human) [10]": {"target": "HLA-B*5401 (Human)", "test": "competition with 125I-labelled probe peptide for purified HLA, gel filtration"}, "HLA-B*3501 (Human)": {"target": "HLA-B*3501 (Human)", "test": "competition with 125I-labelled probe peptide for purified HLA, gel filtration"}}, "note": "Read-outs that look alike come from different tables or passages of the source."}
{"binder": "NSVVLSRK (modifications not checked)", "note": "[HBV POL 738 NSVVLSRK]", "values": [{"measurement": "binding affinity ratio (IC50 of standard peptide / IC50 of test peptide)", "setting": "HLA-A*0301 (human) [1]", "value": 0.0006}]}
{"binder": "LSFLPSDFF (modifications not checked)", "note": "[HBV NUC 45 …]", "values": [{"measurement": "binding affinity ratio (IC50 of standard peptide / IC50 of test peptide)", "setting": "HLA-A*0301 (human) [2]", "value": 0.0006}]}
{"binder": "TPPAYRPPNA (modifications not checked)", "note": "[HBV NUC 128 peptide …]", "values": [{"measurement": "binding affinity ratio (IC50 of standard peptide / IC50 of test peptide)", "setting": "HLA-B*5401 (Human) [3]", "value": 0.01}]}
{"binder": "RLVVDFSQF (modifications not checked)", "note": "[HBV POL 376 peptide …]", "values": [{"measurement": "binding affinity ratio (IC50 of standard peptide / IC50 of test peptide)", "setting": "HLA-A*0301 (human) [4]", "value": 0.0006}]}
{"binder": "NLEDPASR (modifications not checked)", "note": "[HBV NUC 75 peptide NLEDPASR]", "values": [{"measurement": "binding affinity ratio (IC50 of standard peptide / IC50 of test peptide)", "setting": "HLA-A*0301 (human) [5]", "value": -0.0002}, {"measurement": "binding affinity ratio (IC50 of standard peptide / IC50 of test peptide)", "setting": "HLA-A*1101 (human)", "value": -0.0002}, {"measurement": "binding affinity ratio (IC50 of standard peptide / IC50 of test peptide)", "setting": "HLA-A*3101 (human) [6]", "value": -0.0009}, {"measurement": "binding affinity ratio (IC50 of standard peptide / IC50 of test peptide)", "setting": "HLA-A*3301 (human)", "value": -0.0009}]}
{"binder": "GIHLNPNKTK (modifications not checked)", "note": "[HBV POL 567 peptide …]", "values": [{"measurement": "binding affinity ratio (IC50 of standard peptide / IC50 of test peptide)", "setting": "HLA-A*0301 (human) [5]", "value": 0.0025}, {"measurement": "binding affinity ratio (IC50 of standard peptide / IC50 of test peptide)", "setting": "HLA-A*1101 (human)", "value": 0.0011}, {"measurement": "binding affinity ratio (IC50 of standard peptide / IC50 of test peptide)", "setting": "HLA-A*3101 (human) [6]", "value": 0.0009}, {"measurement": "binding affinity ratio (IC50 of standard peptide / IC50 of test peptide)", "setting": "HLA-A*3301 (human)", "value": 0.0009}]}
{"binder": "TDNSVVLSRK (modifications not checked)", "note": "[HBV POL 736 peptide …]", "values": [{"measurement": "binding affinity ratio (relative to standard peptide)", "setting": "HLA-A*0301 (human) [7]", "value": 0.0006}]}
{"binder": "RSPRRRTPSPR (modifications not checked)", "note": "[HBV NUC 163 peptide …]", "values": [{"measurement": "binding affinity ratio (IC50 of standard peptide / IC50 of test peptide)", "setting": "HLA-A*0301 (human) [8]", "value": -0.0007}]}
{"binder": "KVFVLGGCR (modifications not checked)", "note": "[Peptide 1.0993 (HBV X 130, …)]", "values": [{"measurement": "IC50", "setting": "HLA-A*3101 (Human) [9]", "value": 30, "unit": "nM"}]}
{"binder": "LTVNEKRR (modifications not checked)", "note": "[HBV POL 99 LTVNEKRR]", "values": [{"measurement": "binding affinity ratio (IC50 of standard peptide / IC50 of test peptide)", "setting": "HLA-A*0301 (human) [1]", "value": -0.0002}]}
{"binder": "QAFTFSPTY (modifications not checked)", "note": "[HBV POL 654 peptide …]", "values": [{"measurement": "binding affinity ratio (IC50 of standard peptide / IC50 of test peptide)", "setting": "HLA-A*0301 (human) [4]", "value": 0.003}]}
{"binder": "VSFGVWIR (modifications not checked)", "note": "[Peptide 26.0023 (HBV X NUC FUS 296, VSFGVWIR)]", "values": [{"measurement": "IC50", "setting": "HLA-A*03 (Human)", "value": 2750, "unit": "nM"}]}
{"binder": "SVVRRAFPH (modifications not checked)", "note": "[Peptide 20.0131 (HBV pol 524, …)]", "values": [{"measurement": "IC50", "setting": "HLA-A*03 (Human)", "value": 100, "unit": "nM"}]}
{"binder": "NPLGFFPDHQL (modifications not checked)", "note": "[HBV ENV 9 peptide …]", "values": [{"measurement": "binding affinity ratio (IC50 of standard peptide / IC50 of test peptide)", "setting": "HLA-B*0702 (Human)", "value": 0.0012}, {"measurement": "binding affinity ratio (IC50 of standard peptide / IC50 of test peptide)", "setting": "HLA-B*5101 (Human)", "value": 0.0001}, {"measurement": "binding affinity ratio (IC50 of standard peptide / IC50 of test peptide)", "setting": "HLA-B*5301 (Human)", "value": 0.0028}, {"measurement": "binding affinity ratio (IC50 of standard peptide / IC50 of test peptide)", "setting": "HLA-B*5401 (Human) [10]", "value": 0.0001}]}
{"binder": "GLLGFAAPF (modifications not checked)", "note": "[HBV POL 627 …]", "values": [{"measurement": "binding affinity ratio (IC50 of standard peptide / IC50 of test peptide)", "setting": "HLA-A*0301 (human) [8]", "value": 0.0006}]}
{"binder": "LIMPARFY (modifications not checked)", "note": "[HBV POL 109 LIMPARFY]", "values": [{"measurement": "binding affinity ratio (IC50 of standard peptide / IC50 of test peptide)", "setting": "HLA-A*0301 (human) [2]", "value": -0.0002}]}
{"binder": "PPHGGLLGW (modifications not checked)", "note": "[HBV ENV 58 peptide …]", "values": [{"measurement": "binding affinity ratio (IC50 of standard peptide / IC50 of test peptide)", "setting": "HLA-B*0702 (Human)", "value": 0.0001}, {"measurement": "binding affinity ratio (IC50 of standard peptide / IC50 of test peptide)", "setting": "HLA-B*3501 (Human)", "value": 0.0002}, {"measurement": "binding affinity ratio (IC50 of standard peptide / IC50 of test peptide)", "setting": "HLA-B*5101 (Human)", "value": 0.0001}, {"measurement": "binding affinity ratio (IC50 of standard peptide / IC50 of test peptide)", "setting": "HLA-B*5301 (Human)", "value": 0.0003}, {"measurement": "binding affinity ratio (IC50 of standard peptide / IC50 of test peptide)", "setting": "HLA-B*5401 (Human) [10]", "value": 0.0002}]}
{"binder": "PPAYRPPNAPI (modifications not checked)", "note": "[HBV NUC 129 peptide …]", "values": [{"measurement": "binding affinity ratio (IC50 of standard peptide / IC50 of test peptide)", "setting": "HLA-B*0702 (Human)", "value": 0.0003}, {"measurement": "binding affinity ratio (IC50 of standard peptide / IC50 of test peptide)", "setting": "HLA-B*3501 (Human)", "value": 0.0001}, {"measurement": "binding affinity ratio (IC50 of standard peptide / IC50 of test peptide)", "setting": "HLA-B*5101 (Human)", "value": 0.0001}, {"measurement": "binding affinity ratio (IC50 of standard peptide / IC50 of test peptide)", "setting": "HLA-B*5401 (Human) [10]", "value": 0.0001}]}
